± gives the uncertainty stated by the source.
Assay: self-splicing fitness, log relative to wild type (ln ratio); higher = more splicing; Tetrahymena group I intron in knt gene, E. coli kanamycin selection, DiMSum; sequences stand for … in CUCUCU…GGAGGGAAAAGUUAUCAGGCAUGCACCUGGUAGCUAGUCUUUAAACCAAUAGAUUGCAUCGGUUUAAAAGGCAAGACCGUCAAAUUGCGGGAAAGGGGUCAACAGCCGUUCAGUACCAAGUCUCAGGGGAAACUUUGAGAUGGCCUUGCAAAGGGUAUGGUAAUAAGCUGACGGACAUGGUCCUAACCACGCAGCCAAGUCCUAAGUCAACAGAUCUUCUGUUGAUAUGGAUGCAGUUCACAGACUAAAUGUCGGUCGGGGAAGAUGUAUUCUUCUCAUAAGAUAUAGUCGGACCUCUCCUUAAUGGGAGCUAGCGGAUGAAGUGAUGCAACACUGGAGCCGCUGGGAACUAAUUUGUAUGCGAAAGUAUAUUGAUUAGUUUUGGAGUACUCGUGGUCG
How it was run: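 The eight P1ex-region nucleotides of an intron in the knt kanamycin-resistance gene on pET-22b(+) were all randomised and the library put into E. coli BL21(DE3). Six replicate transformations were grown overnight at 37°C or 30°C on LB agar with or without 25 μg/mL kanamycin, together with 100 μg/mL carbenicillin, 50 μM IPTG and 0.2% rhamnose. Colonies were pooled and amplicon-sequenced on an Illumina HiSeq 2500. Fitness from DiMSum is the error-weighted combination of wild-type-normalised replicate fold changes, kanamycin over none.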

| Sequence | self-splicing fitness (ln) (30 °C) | self-splicing fitness (ln) (37 °C) |
| --- | --- | --- |
| GAGAAGCAAUAUUACGGUAC | -2.92 ± 0.23 | -1.54 ± 0.21 |
| CUCGAGCAAUAUUACGAAUA | -3.12 ± 0.3 | -2.59 ± 0.28 |
| UGUAAGCAAUAUUACGCCAA | -2.77 ± 0.26 | -1.34 ± 0.2 |
| AGCCAGCAAUAUUACGACCG | -3.83 ± 0.32 | -1.89 ± 0.24 |
| UGAAAGCAAUAUUACGAAAA | -2.53 ± 0.23 | -1.14 ± 0.16 |
| GCAUAGCAAUAUUACGUGAU | -1.64 ± 0.066 | -0.927 ± 0.08 |
| UCGUAGCAAUAUUACGACCG | -1.23 ± 0.18 | -0.438 ± 0.34 |
| GUACAGCAAUAUUACGCCUC | -0.924 ± 0.14 | -0.219 ± 0.16 |
| CCCUAGCAAUAUUACGUUAC | -4.52 ± 0.29 | -2.53 ± 0.27 |
| UUGCAGCAAUAUUACGCCGA | -0.318 ± 0.11 | -0.371 ± 0.12 |
| CAAGAGCAAUAUUACGACAA | -0.348 ± 0.28 | -1.43 ± 0.39 |
| AGAAAGCAAUAUUACGCUCA | -0.775 ± 0.15 | 1.19 ± 0.18 |
| GACAAGCAAUAUUACGUGAU | -1.77 ± 0.071 | -1.17 ± 0.09 |
| ACCAAGCAAUAUUACGAUCU | -1.29 ± 0.064 | 0.0583 ± 0.076 |
| UUGUAGCAAUAUUACGCGGA | -1.43 ± 0.13 | -0.3 ± 0.11 |
| GCAUAGCAAUAUUACGAGUA | -1.63 ± 0.15 | -1.23 ± 0.12 |
| UAUGAGCAAUAUUACGCCUA | -1.59 ± 0.18 | -0.615 ± 0.21 |
| ACUAAGCAAUAUUACGAUGA | -0.267 ± 0.068 | -0.253 ± 0.076 |
| CGGAAGCAAUAUUACGGAAU | -2.11 ± 0.16 | -1.08 ± 0.19 |
| AUCGAGCAAUAUUACGAAGG | -2.56 ± 0.23 | -2.28 ± 0.31 |
| CGUCAGCAAUAUUACGAUUG | -0.506 ± 0.076 | -0.162 ± 0.084 |
| AAUGAGCAAUAUUACGUAUA | -3.43 ± 0.17 | -1.93 ± 0.13 |
| UGAGAGCAAUAUUACGGAAA | – | -1.92 ± 0.39 |
| AGCCAGCAAUAUUACGAGUA | -3.06 ± 0.22 | -1.5 ± 0.16 |
| AUAUAGCAAUAUUACGUCUC | -3.22 ± 0.36 | -1.51 ± 0.28 |
| GUGUAGCAAUAUUACGAAUC | -1.43 ± 0.17 | -0.973 ± 0.14 |

| Sequence | self-splicing fitness (ln) (30 °C) | self-splicing fitness (ln) (37 °C) |
| --- | --- | --- |
| AAAAAGCAAUAUUACGCAUU | -2.5 ± 0.1 | -1.8 ± 0.11 |
| CUUUAGCAAUAUUACGCGCA | -2.5 ± 0.31 | -1.77 ± 0.42 |
| ACCUAGCAAUAUUACGUCAA | -2.03 ± 0.2 | -1.78 ± 0.17 |
| CUUGAGCAAUAUUACGACAA | – | -2.84 ± 0.49 |
| AGGCAGCAAUAUUACGUAGU | -3.18 ± 0.12 | -1.75 ± 0.11 |
| GAAUAGCAAUAUUACGAGGA | -2.85 ± 0.33 | -1.5 ± 0.18 |
| CUAUAGCAAUAUUACGCUUG | -2.62 ± 0.25 | -2.14 ± 0.26 |
| CUGUAGCAAUAUUACGCAUC | -3.45 ± 0.32 | -2.69 ± 0.34 |
| ACAAAGCAAUAUUACGUUUA | -3.55 ± 0.13 | -0.482 ± 0.088 |
| AUUAAGCAAUAUUACGACAG | -1.91 ± 0.16 | -1.47 ± 0.19 |
| CGCCAGCAAUAUUACGUCGU | -3.29 ± 0.15 | -2.35 ± 0.16 |
| UGCCAGCAAUAUUACGCCUU | -1.93 ± 0.13 | -2.29 ± 0.18 |
| AUGCAGCAAUAUUACGUGUU | -4.05 ± 0.16 | -2.66 ± 0.17 |
| CUUGAGCAAUAUUACGUCGA | -1.25 ± 0.24 | – |
| CACCAGCAAUAUUACGACCG | -0.000395 ± 0.066 | 0.12 ± 0.089 |
| GGCUAGCAAUAUUACGCAGC | – | -2.29 ± 0.39 |
| AUGGAGCAAUAUUACGAUGG | -2.22 ± 0.29 | -2.47 ± 0.44 |
| UAUCAGCAAUAUUACGCCUU | -0.446 ± 0.24 | -0.723 ± 0.23 |
| UUUGAGCAAUAUUACGGAGA | – | 1.09 ± 0.29 |
| CACCAGCAAUAUUACGAGAC | – | -2.02 ± 0.32 |
| UAUCAGCAAUAUUACGAUGU | -0.816 ± 0.072 | -0.0178 ± 0.11 |
| AUGAAGCAAUAUUACGACUA | 0.0947 ± 0.059 | -0.133 ± 0.059 |
| AGUGAGCAAUAUUACGUUCU | -1.78 ± 0.15 | -1.57 ± 0.14 |
| UACAAGCAAUAUUACGCGGC | -3.59 ± 0.24 | -2.91 ± 0.31 |
| AGGCAGCAAUAUUACGCCGC | -2.8 ± 0.18 | -2.66 ± 0.29 |
| ACCCAGCAAUAUUACGGGUG | -2.14 ± 0.061 | -0.937 ± 0.058 |

| Sequence | self-splicing fitness (ln) (30 °C) | self-splicing fitness (ln) (37 °C) |
| --- | --- | --- |
| CUGAAGCAAUAUUACGCAUA | -3.91 ± 0.3 | -2.57 ± 0.32 |
| AACCAGCAAUAUUACGUCCC | -0.726 ± 0.13 | 0.292 ± 0.18 |
| UCGCAGCAAUAUUACGUAAG | -1.4 ± 0.099 | -1.12 ± 0.11 |
| CAGUAGCAAUAUUACGUGCC | -3.68 ± 0.35 | -1.93 ± 0.27 |
| CUAUAGCAAUAUUACGCACA | -2.35 ± 0.27 | -1.89 ± 0.25 |
| CGAGAGCAAUAUUACGGUUA | -3.13 ± 0.43 | -2.79 ± 0.49 |
| UUAGAGCAAUAUUACGUGUG | -1.27 ± 0.09 | -1.11 ± 0.14 |
| AGUCAGCAAUAUUACGGGUU | -0.799 ± 0.077 | -0.628 ± 0.086 |
| CGCGAGCAAUAUUACGUUUG | -4.03 ± 0.21 | -1.91 ± 0.18 |
| UCUCAGCAAUAUUACGACUU | -1.63 ± 0.073 | -1.75 ± 0.11 |
| GGAUAGCAAUAUUACGGACU | -0.129 ± 0.14 | -0.134 ± 0.19 |
| ACGCAGCAAUAUUACGUCUG | -2.44 ± 0.14 | -2.5 ± 0.28 |
| AAGUAGCAAUAUUACGAUGU | -1.23 ± 0.1 | -0.476 ± 0.12 |
| AAUCAGCAAUAUUACGAGGG | -1.68 ± 0.088 | -0.681 ± 0.096 |
| GGCGAGCAAUAUUACGCGAG | -2.7 ± 0.24 | -2.24 ± 0.32 |
| UAUCAGCAAUAUUACGCUAU | -2.29 ± 0.11 | -1.74 ± 0.1 |
| CACAAGCAAUAUUACGUGCU | -3.93 ± 0.18 | -2.79 ± 0.15 |
| GUGCAGCAAUAUUACGUGUU | -1.99 ± 0.081 | -1.22 ± 0.084 |
| UCCGAGCAAUAUUACGAAGC | – | -1.15 ± 0.36 |
| GCCUAGCAAUAUUACGCUUU | -0.497 ± 0.097 | -0.0274 ± 0.12 |
| CCCUAGCAAUAUUACGUUAG | -3.73 ± 0.22 | -2.36 ± 0.18 |
| CGUCAGCAAUAUUACGAGUG | -0.944 ± 0.056 | -0.00372 ± 0.077 |
| GAUAAGCAAUAUUACGAAUC | -3.17 ± 0.25 | -2.16 ± 0.25 |
| ACAGAGCAAUAUUACGGGGU | -4.03 ± 0.34 | -2.39 ± 0.3 |
| UUACAGCAAUAUUACGUAGA | -1.01 ± 0.067 | -0.372 ± 0.081 |

— the supplement of paper PMC7877785
